Assay results taken from US6753151B1, “Interactions of Ku polypeptides and applications thereof” (Kudos Pharmaceuticals Limited, priority 1999, dated 2004).

Experiments:
full length Ku80 = target: T1, full length Ku80 (Homo sapiens, UniProt P13010); test: GST pull-down of Ku80 from biotinylated bacterial extract by GST-Ku70 derivatives; type: binding; conditions: GST-fusion on glutathione agarose beads, biotinylated bacterial extract containing Ku80, seven NETN washes, streptavidin-HRP blot
T1 construct: incubated with biotinylated bacterial cell extracts containing full length Ku80; made in house; host or cells: E. coli BL21 pLysS
T1 sequence (P13010 whole entry, the tested form may be a part): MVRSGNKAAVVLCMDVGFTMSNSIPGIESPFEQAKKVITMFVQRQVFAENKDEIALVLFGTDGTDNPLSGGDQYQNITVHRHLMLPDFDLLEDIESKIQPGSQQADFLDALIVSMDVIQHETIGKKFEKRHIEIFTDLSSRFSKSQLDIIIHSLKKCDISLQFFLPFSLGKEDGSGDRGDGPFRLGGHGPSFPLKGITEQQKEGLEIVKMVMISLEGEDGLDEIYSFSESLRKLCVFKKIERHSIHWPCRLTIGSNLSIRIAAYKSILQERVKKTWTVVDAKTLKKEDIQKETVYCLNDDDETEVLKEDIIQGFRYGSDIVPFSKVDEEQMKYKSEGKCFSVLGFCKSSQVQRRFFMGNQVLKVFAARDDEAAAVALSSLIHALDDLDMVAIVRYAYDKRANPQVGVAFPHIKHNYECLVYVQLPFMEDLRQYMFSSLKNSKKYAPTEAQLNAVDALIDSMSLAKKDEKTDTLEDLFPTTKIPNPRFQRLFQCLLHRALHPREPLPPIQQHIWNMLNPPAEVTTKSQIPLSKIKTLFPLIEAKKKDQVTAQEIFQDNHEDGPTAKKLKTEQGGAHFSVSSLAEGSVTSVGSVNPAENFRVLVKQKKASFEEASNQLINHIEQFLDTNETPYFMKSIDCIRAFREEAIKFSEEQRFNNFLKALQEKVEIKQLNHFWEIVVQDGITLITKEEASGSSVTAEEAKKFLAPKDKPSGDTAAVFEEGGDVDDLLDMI
Experimental: (§1) Full length Ku70 and Ku80 were cloned in frame with the glutathione binding domain of human glutathione S-transferase (GST) by sub-cloning into pGEX2TKP (a derivative of […] by Pharmacia). Deletion mutants of Ku70 and Ku80 were cloned by Pfu polymerase amplification and cloning into pGEX2TKP. Expression from all pGEX2TKP constructs was carried out in either DH5α or DS941 strains of E. coli. Bacterial cell extracts were produced by sonication in Phosphate-buffered saline (PBS; 138 mM NaCl, 3 mM KCl, 10 mM Phosphate buffer pH 7.4) containing 1% Triton-X100 (Sigma) and protease inhibitor tablets (Boehringer). GST-fusion proteins were purified by passing bacterial lysates over Glutathione Agarose beads (Pharmacia) and washing extensively in PBS containing 1% Triton-X100 and then in PBS alone. The beads/proteins were stored at −80° C. prior to use.
Ku70 and Ku80 were cloned into pET30a (Novagen) to generate a N-terminal hexa-Histidine tag and expressed at low levels in E. coli (BL21 pLysS). […]
(§2) In a complementary approach to the yeast 2-hybrid technique, the inventors used a “pull-down” assay to detect interactions between recombinant deletion derivatives of the two Ku subunits. […] Interacting proteins were detected by probing these western blots with streptavidin that was conjugated to horse radish peroxidase (HRP). […]

full length Ku70 = target: T2, full length Ku70 (Homo sapiens, UniProt P12956); test: GST pull-down of Ku70 from biotinylated bacterial extract by GST-Ku80 derivatives; type: binding; conditions: GST-fusion on glutathione agarose beads; biotinylated bacterial extract containing Ku70; seven NETN washes; streptavidin-HRP blot
T2 construct: incubated with biotinylated bacterial cell extracts containing full length Ku70; made in house; host or cells: E. coli BL21 pLysS
T2 sequence (P12956 whole entry, the tested form may be a part): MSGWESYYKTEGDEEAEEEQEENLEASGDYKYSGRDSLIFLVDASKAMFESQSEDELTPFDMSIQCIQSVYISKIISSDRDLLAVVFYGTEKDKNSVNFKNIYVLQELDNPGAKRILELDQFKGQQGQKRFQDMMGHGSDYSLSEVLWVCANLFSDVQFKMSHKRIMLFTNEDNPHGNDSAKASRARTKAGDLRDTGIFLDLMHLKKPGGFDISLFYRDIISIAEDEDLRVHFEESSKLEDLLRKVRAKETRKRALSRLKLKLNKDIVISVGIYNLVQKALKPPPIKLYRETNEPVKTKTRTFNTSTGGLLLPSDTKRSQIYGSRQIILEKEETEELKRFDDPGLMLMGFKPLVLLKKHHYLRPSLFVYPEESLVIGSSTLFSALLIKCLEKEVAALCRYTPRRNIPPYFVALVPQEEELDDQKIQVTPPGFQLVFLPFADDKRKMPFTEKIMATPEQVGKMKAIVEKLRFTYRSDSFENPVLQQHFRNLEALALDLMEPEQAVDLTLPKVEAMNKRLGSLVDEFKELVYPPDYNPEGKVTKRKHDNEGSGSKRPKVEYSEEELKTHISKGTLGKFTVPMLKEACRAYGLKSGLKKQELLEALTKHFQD
Experimental: as §1, with “use. […]” for “use.”
as §2
The inventors tested a range of Ku80 deletion derivatives expressed as GST-fusions for their ability to interact with full-length Ku70. […]

Row | interaction with full-length Ku80 (full length Ku80; listed as Full-length Ku70) | Substance | interaction with full-length Ku80 (full length Ku80) | interaction with full-length Ku70 (full length Ku70)
1 | binds to Ku80 efficiently | GST-Ku70: full length human Ku70 fused to glutathione S-transferase, expressed in E. coli | only a single species is retained efficiently on the beads | 
2 |  | GST-Ku80: full length human Ku80 fused to glutathione S-transferase, expressed in E. coli |  | only a single species is retained efficiently on the beads
